In article PMC10958042:

B1: ATGL (PNPLA2, patatin-like phospholipase domain-containing protein 2), human, full length / CIDEC (FSP27), human (parent)
chain 1: MFPREKTWNISFAGCGFLGVYYVGVASCLREHAPFLVANATHIYGASAGALTATALVTGVCLGEAGAKFIEVSKEARKRFLGPLHPSFNLVKIIRSFLLKVLPADSHEHASGRLGISLTRVSDGENVIISHFNSKDELIQANVCSGFIPVYCGLIPPSLQGVRYVDGGISDNLPLYELKNTITVSPFSGESDICPQDSSTNIHELRVTNTSIQFNLRNLYRLSKALFPPEPLVLREMCKQGYRDGLRFLQRNGLLNRPNPLLALPPARPHGPEDKDQAVESAQAEDYSQLPGEDHILEHLPARLNEALLEACVEPTDLLTTLSNMLPVRLATAMMVPYTLPLESALSFTIRLLEWLPDVPEDIRWMKEQTGSICQYLVMRAKRKLGRHLPSRLPEQVELRRVQSLPSVPLSCAAYREALPGWMRNNLSLGDALAKWEECQRQLLLGLFCTNVAFPPEALRMRAPADPAPAPADPASPQHQLAGPAPLLSTPAPEARPVIGALGL
chain 2: MEYAMKSLSLLYPKSLSRHVSVRTSVVTQQLLSEPSPKAPRARPCRVSTADRSVRKGIMAYSLEDLLLKVRDTLMLADKPFFLVLEEDGTTVETEEYFQALAGDTVFMVLQKGQKWQPPSEQGTRHPLSLSHKPAKKIDVARVTFDLYKLNPQDFIGCLNVKATFYDTYSLSYDLHCCGAKRIMKEAFRWALFSMQATGHVLLGTSCYLQQLLDATEEGQPPKGKASSLIPTCLKILQ
B2: ATGL (PNPLA2, patatin-like phospholipase domain-containing protein 2), human, full length / perilipin-5, mouse (mPlin5) (parent)
chain 1: B1 chain 1
chain 2: MDQRGEDTTLAPHSRMSGDQTAQDPGSSLGELDQQNVVNRVVALPLVKATCTAVSSAYNSAKDRHPLLGSACRLAEHCVCSVTTCALDHAQPLLEHLQPQLATVNDLACRGLDKLEEKLPFLQQPSDMVVTSAKDTVAKSVTGMVDLAQRGRRWSGELRRSMSQAMDMVLGKSEKLVDRFLPMTEAELAVLAAEAEGPEVGTVEEQRQQQGYFVRLGSLSARLRHLAYEHSLGKLRQSKHRTQEMLAQLQETLELIQHMQRGASPSPTFHPPKTQELWGSWSPCLENGRSHSEVELETLALSRSLTLELQNAVDALAGCVRGLPPSAQAKVAEVQRSVDALQATFADAHCLGDVAPTALAEGRGSVARAHACVDEFLDLVLRAMPLPWLVGPFAPILVEQSEPLINLATCVDEVVGDPDPRWAHMDWPAQKRAWEAESADPGGQEAEPPRGQGKHTMMPELDF

Variants of: B1
Assay: LUMIER: Protein A-ATGL variant and firefly luciferase-partner co-expressed in HEK293T, lysates immunoprecipitated on IgG-coated plates, co-precipitated partner measured as luciferase luminescence
Conditions: with CIDEC (FSP27), transient co-transfection, IgG-coated LUMITRAC plates, 2 h at 4 °C, three PBS washes, Bright-Glo luciferase reagent, triplicates per assay, two …, parent: 0.17, not graded, scale: log2 fold change of co-immunoprecipitated luminescence relative to wild-type ATGL within each experiment

Variant	screen value
chain 1 P86K	0.081
chain 1 P103K	-0.241
chain 1 P156K	-0.723
chain 1 P258L	-0.89
chain 1 Q140A	0.722
chain 1 Q140K	-0.161
chain 1 Q396A	0.0352
chain 1 R95K	-0.0915
chain 1 R95L	-0.169
chain 1 R113K	-0.11
chain 1 R113L	-0.719
chain 1 R163K	0.652
chain 1 R329E	0.201
chain 1 R351L	-0.353
chain 1 S87A	-0.0562
chain 1 S87E	-0.478
chain 1 S106K	-0.0703
chain 1 S158A	-0.128
chain 1 S158E	-0.309
chain 1 T41A	0.105
chain 1 V127L	-0.166
chain 1 V328A	0.302
chain 1 Y415A	-0.411

Same assay, conditions: with CIDEC (FSP27), transient co-transfection, IgG-coated LUMITRAC plates, 2 h at 4 °C, three PBS washes, Bright-Glo luciferase reagent, triplicates per assay, two …, parent: 0.24, not graded, scale: log2 fold change of co-immunoprecipitated luminescence relative to wild-type ATGL within each experiment

Variant	screen value
chain 1 P86K	-0.642
chain 1 P103K	-0.421
chain 1 P156K	-0.374
chain 1 P258L	-0.788
chain 1 Q140A	0.0209
chain 1 Q140K	0.485
chain 1 Q396A	-0.182
chain 1 R95K	-0.656
chain 1 R95L	0.507
chain 1 R113K	0.829
chain 1 R113L	0.537
chain 1 R163K	0.0551
chain 1 R329E	-0.13
chain 1 R351L	-0.407
chain 1 S87A	-0.798
chain 1 S87E	-0.728
chain 1 S106K	-0.113
chain 1 S158A	0.0569
chain 1 S158E	-0.238
chain 1 T41A	-0.176
chain 1 V127L	-0.0792
chain 1 V328A	-0.193
chain 1 Y415A	-0.266

Variants of: B2
Assay: as above
Conditions: with perilipin-5, mouse (mPlin5), transient co-transfection, IgG-coated LUMITRAC plates, 2 h at 4 °C, three PBS washes, Bright-Glo luciferase reagent, triplicates per assay, two …, parent: 0.15, not graded, scale: log2 fold change of co-immunoprecipitated luminescence relative to wild-type ATGL within each experiment

Variant	screen value
chain 1 A104E	-0.161
chain 1 A434L	0.18
chain 1 A453E	0.182
chain 1 E125L	0.00114
chain 1 E314A	0.0215
chain 1 E368A	-0.0206
chain 1 F35A	-0.563
chain 1 F35E	-0.313
chain 1 F348E	0.152
chain 1 G16K	0.284
chain 1 G59L	-0.841
chain 1 G66A	-0.448
chain 1 G66L	-0.614
chain 1 G153A	-0.676
chain 1 G153K	-1.05
chain 1 G189E	-1.35
chain 1 H109E	0.319
chain 1 I70A	-1.37
chain 1 I70K	-0.962
chain 1 K92L	0.0605
chain 1 K275A	-0.0642
chain 1 L62A	-0.2
chain 1 L62K	-0.0604
chain 1 L102K	-0.208

The remaining lines, values ahead:

screen value	Variant
-1.17	chain 1 L159A
-0.0602	chain 1 L178A
-0.706	chain 1 L261E
-0.463	chain 1 N39E
-0.751	chain 1 N180L
-1.17	chain 1 P86K
-0.303	chain 1 P103K
-0.669	chain 1 P156K
-0.695	chain 1 P258L
-0.185	chain 1 Q140A
0.011	chain 1 Q140K

Same assay, conditions: with perilipin-5, mouse (mPlin5), transient co-transfection, IgG-coated LUMITRAC plates, 2 h at 4 °C, three PBS washes, Bright-Glo luciferase reagent, triplicates per assay, two …, parent: 0.46, not graded, scale: log2 fold change of co-immunoprecipitated luminescence relative to wild-type ATGL within each experiment

Variant	screen value
chain 1 A104E	-0.459
chain 1 A434L	0.786
chain 1 A453E	0.52
chain 1 E125L	-0.226
chain 1 E314A	0.421
chain 1 E368A	-0.0325
chain 1 F35A	-0.0452
chain 1 F35E	-0.0352
chain 1 F348E	-0.58
chain 1 G16K	0.354
chain 1 G59L	-0.187
chain 1 G66A	0.0231
chain 1 G66L	-0.664
chain 1 G153A	-0.506
chain 1 G153K	-0.867
chain 1 H109E	-0.248
chain 1 I70A	-0.876
chain 1 I70K	-0.924
chain 1 K92L	0.185
chain 1 K275A	-0.483
chain 1 L62A	-0.0199
chain 1 L62K	0.482
chain 1 L102K	-0.846

Now from value to variant:

screen value	Variant
-0.435	chain 1 L159A
-0.257	chain 1 L178A
-0.846	chain 1 L261E
-0.463	chain 1 N39E
-0.918	chain 1 N180L
-1.16	chain 1 P86K
-0.674	chain 1 P103K
-1.08	chain 1 P156K
-1.24	chain 1 P258L
-0.0429	chain 1 Q140A
-0.224	chain 1 Q140K

Same assay, conditions: with perilipin-5, mouse (mPlin5), transient co-transfection, IgG-coated LUMITRAC plates, 2 h at 4 °C, three PBS washes, Bright-Glo luciferase reagent, triplicates per assay, two …, parent: 0.46, not graded, value at the no-binding floor (a bound), scale: log2 fold change of co-immunoprecipitated luminescence relative to wild-type ATGL within each experiment

Variant	screen value
chain 1 G189E	-1.51
